The source of these data is PMC13499124.

Assay in all cases: MST; labelled JIP3/4 fragment (Blue-NHS dye) constant at 20 nM, KIF5B fragment titrated 120 pM to 4 uM (up to 38.2 uM when needed); 50 mM Tris pH 8.0, 200 mM NaCl, 10 mM MgCl2, 0.05% Tween 20; room temperature; Monolith NT.115, premium capillaries, MST-on 0.5-1.5 s; 1:1 Kd fit; three replicates; the paper calls its affinities relative measurements
One test deals with JIP4-N-RH1-lz3-G40H-R41C (UniProt O60271).
Test [1] has as its target JIP4-N^JIP3-RH1-lz3 chimera (JIP4 variant incorporating the N-terminus of JIP3) (mouse | not stated).
For test [2], the target named is JIP3-N^JIP4-RH1-lz3 chimera (JIP3 variant incorporating the N-terminus of JIP4) (not stated | mouse).

Sequence of KIF5B-CC3b-CC4-dt fragment (P33176 771-963): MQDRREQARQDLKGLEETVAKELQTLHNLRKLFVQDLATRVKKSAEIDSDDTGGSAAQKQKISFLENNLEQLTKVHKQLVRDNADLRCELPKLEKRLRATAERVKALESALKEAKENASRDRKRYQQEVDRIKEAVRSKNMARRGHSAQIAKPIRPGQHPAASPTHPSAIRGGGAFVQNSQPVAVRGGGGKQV
Sequence of JIP4-N-RH1-lz3-G40H-R41C (O60271 whole entry G40H/R41C): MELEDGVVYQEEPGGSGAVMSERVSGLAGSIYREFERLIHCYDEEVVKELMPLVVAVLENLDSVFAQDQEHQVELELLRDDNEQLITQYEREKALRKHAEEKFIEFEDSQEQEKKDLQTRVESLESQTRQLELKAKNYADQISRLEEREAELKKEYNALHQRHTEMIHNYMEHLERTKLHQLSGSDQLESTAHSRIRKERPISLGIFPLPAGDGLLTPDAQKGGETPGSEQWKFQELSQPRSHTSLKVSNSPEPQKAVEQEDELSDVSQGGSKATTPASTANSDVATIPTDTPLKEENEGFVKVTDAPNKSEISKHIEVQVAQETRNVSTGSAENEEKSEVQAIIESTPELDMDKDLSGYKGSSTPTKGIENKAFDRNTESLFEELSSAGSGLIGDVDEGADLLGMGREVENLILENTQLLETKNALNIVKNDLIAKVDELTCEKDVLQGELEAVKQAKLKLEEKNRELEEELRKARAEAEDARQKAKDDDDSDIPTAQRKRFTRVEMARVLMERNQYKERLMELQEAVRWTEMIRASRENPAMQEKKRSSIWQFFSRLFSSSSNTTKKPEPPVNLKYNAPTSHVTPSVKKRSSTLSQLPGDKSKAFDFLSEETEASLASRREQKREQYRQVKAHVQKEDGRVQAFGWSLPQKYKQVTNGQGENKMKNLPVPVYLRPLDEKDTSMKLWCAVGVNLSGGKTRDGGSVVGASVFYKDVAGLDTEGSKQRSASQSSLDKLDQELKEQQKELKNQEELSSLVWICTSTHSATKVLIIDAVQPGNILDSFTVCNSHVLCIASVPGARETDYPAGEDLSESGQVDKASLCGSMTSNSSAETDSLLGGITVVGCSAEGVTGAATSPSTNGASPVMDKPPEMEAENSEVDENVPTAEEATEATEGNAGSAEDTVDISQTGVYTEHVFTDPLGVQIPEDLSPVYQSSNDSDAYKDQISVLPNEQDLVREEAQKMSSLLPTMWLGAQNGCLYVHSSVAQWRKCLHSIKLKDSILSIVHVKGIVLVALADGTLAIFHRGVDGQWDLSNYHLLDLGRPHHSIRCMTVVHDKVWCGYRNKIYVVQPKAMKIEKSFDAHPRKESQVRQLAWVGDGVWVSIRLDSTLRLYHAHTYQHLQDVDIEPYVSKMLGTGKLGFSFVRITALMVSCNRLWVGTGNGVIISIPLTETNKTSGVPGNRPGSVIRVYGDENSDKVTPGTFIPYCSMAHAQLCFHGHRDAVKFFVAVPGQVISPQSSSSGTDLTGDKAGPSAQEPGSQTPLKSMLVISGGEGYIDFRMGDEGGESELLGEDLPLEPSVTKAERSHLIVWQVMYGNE

For the substance “KIF5B-CC3b-CC4-dt fragment (from UniProt P33176 771-963) (domain or fragment)”, the Kd stood at 0.132 µM with JIP4-N-RH1-lz3-G40H-R41C, 0.246 µM in test [1] and 0.0296 µM in test [2].
